Source: US20230227571A1 (University of Pennsylvania, published 2023)
Positions count from the first letter of the chain named. Numbers in names are those of the source.

B1: anti-human C5 mAb 9G6 (antibody, V domains shown)
VH: QIQLVQSGPELKKPGETVKISCKASGYTFTEYPMHWVKQAPGKSFKWMGILYTDTGEPTYAEEFRGRFAFSLETSASTAYLQINNLKNEDTATYFCVHSGYVGYWGQGTTLTVSS
VL: DIQMTQSPASLSASVGETVTFTCRASEIIYSYLVWYQQKQGKSPQLLVSNAKTLAEGVPSRFSGSGSGTQFSLKINSLQPEDFGSYYCQHYYGNPPTFGGGTKLEIKR
notes: Murine hybridoma mAb; entries may include the leader peptide
B2: anti-human C5 mAb 11C5 (antibody, V domains shown)
VH: EVQLVESGGGLVKPGGSLKLSCAASGFTFTTYAMSWVRQTPEKRLEWVATISAGGTYTYYSDNVKGRFTISRDNAKNNLYLQMSHLKSEDTAMFYCARDPDYYGRSPFAYWGQGTLVTVSA
VL: EIVLTQSPATLSVTPGESVSLSCRASQSISNNLQWYQQKSHESPRLLIKYASQSISGIPSRFSGSGSGTDFTLSINSVETEDFGMYFCQQSNSWPLTFGGGTKVELKR
notes: as for B1
B3: humanized 2G1 (VH-11801/VL-1901) (antibody, V domains shown)
VH: QVQLVQSGAEVKKPGASVKVSCKASGYTITDYNLDWVRQAPGQGLEWMGDISPNYGYTIYNQKFKDRVTMTTDTSTSTAYMELRSLRSDDTAVYYCARRDIRYSGNSYKWYFDVWGQGTMVTVSS
VL: DIQLTQSPSFLSASVGDRVTITCRTSKSISKYLAWYQQKPGKAPKLLIYSGSTLQSGVPSRFSGSGSGTEFTLTISSLQPEDFATYYCQQHNEYPYTFGQGTKLEIKT
notes: Human IgG4 mAb with S228P, expressed in CHO cells
B4: humanized 2G1 (VH-16901/VL-1901) (antibody, V domains shown)
VH: B3 VH with A16S, M70I, T72A, T74E, R84S, D89E
VL: B3 VL
notes: as for B3
B5: anti-human C5 mAb 8E1 (antibody, V domains shown)
VH: QVQLKESGPGLVAPSQSLSITCTVSGFPLNNYGIHWVRQPPGKGLEWLAVIWSDGRTTYNSALNSRLSISKDNSKSQVFFKMNSLQTDDTAMYYCARHDGRGDYSMDYWGQGTSVTVSS
VL: ELVMTQSPASLVVSLGQRATISCRASKGVSTSVYSYMHWYQQKPGQPPKLLIYLASNLESGVPARFSGSGSGTDFSLNIHPVEEEDAATYYCQQSGELPLTFGAGTKLELKR
notes: as for B1

How the values were obtained:
[1] = biological target: T1, human C5 (purified human complement C5, Complement Technology #A120; also C5 in normal human serum) (human, UniProt P01031 19-673; P01031 678-1676); assay: direct ELISA, plate coated with purified human C5, serially diluted mAb
T1 construct: domain: β chain;domain: α chain; Purified plasma protein bought from Complement Technology; also called hC5
T1 sequence (P01031 19-673 limits assumed, chain 1 of 2): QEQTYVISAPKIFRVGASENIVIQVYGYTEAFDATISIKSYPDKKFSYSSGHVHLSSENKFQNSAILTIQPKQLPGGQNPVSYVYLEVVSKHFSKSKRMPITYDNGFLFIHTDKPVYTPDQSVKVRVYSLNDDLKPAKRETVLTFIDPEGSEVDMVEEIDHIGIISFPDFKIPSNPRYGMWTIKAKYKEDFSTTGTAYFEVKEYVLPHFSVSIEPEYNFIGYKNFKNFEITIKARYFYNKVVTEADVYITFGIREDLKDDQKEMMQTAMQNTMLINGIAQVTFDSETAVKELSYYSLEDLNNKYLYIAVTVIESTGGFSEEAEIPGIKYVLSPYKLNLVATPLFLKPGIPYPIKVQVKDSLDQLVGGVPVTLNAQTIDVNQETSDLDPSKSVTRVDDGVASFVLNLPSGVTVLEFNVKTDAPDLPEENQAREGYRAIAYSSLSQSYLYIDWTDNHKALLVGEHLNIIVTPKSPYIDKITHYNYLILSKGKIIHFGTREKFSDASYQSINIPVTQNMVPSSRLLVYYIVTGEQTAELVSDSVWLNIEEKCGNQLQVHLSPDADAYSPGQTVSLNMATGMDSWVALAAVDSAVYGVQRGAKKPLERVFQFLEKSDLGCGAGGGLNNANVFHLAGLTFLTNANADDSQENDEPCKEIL
T1 sequence (P01031 678-1676 limits assumed, chain 2 of 2): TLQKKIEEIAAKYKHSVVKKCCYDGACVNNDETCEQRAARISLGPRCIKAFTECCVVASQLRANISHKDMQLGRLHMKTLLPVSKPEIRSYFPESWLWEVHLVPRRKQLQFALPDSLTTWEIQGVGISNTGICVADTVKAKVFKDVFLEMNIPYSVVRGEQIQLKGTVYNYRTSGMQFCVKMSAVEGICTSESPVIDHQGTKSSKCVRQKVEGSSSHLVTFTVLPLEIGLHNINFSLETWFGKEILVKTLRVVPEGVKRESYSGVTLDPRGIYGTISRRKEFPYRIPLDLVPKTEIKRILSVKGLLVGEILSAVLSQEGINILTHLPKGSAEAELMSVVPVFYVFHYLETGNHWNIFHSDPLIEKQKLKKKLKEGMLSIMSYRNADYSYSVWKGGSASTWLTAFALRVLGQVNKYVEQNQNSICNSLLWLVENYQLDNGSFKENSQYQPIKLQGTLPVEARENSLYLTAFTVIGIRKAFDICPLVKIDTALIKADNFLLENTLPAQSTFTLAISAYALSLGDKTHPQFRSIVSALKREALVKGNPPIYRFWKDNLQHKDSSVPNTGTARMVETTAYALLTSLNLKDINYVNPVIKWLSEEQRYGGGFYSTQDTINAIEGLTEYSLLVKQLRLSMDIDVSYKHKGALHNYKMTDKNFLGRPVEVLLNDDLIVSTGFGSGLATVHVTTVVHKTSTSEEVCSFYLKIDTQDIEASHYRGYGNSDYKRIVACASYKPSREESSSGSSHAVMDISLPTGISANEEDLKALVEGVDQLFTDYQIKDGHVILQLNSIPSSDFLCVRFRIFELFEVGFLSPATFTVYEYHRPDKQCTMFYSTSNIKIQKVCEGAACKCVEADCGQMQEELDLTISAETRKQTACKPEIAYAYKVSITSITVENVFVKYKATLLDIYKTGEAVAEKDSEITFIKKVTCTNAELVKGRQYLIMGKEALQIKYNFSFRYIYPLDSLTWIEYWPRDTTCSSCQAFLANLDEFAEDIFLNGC
Source text: Direct antigen binding ELISA in which mAbs are serially diluted across microtiter plates coated with purified human C5.

[2] = biological target: T1, human C5 (purified human complement C5, …); assay: ELISA, plate coated with human C5, anti-human IgG4-HRP detection
Source text: A plate was coated with human C5.

Row | Binder | binding result [1] | binding result [2]
1 | B1 | binds | –
2 | B2 | binds | –
3 | B3 | – | binds
4 | B4 | – | binds
5 | B5 | binds | –
